B1: I-1554 (peptide)
peptide: Ac-[αAllylPro]DK[B5(23)]DEAAF[hSer][S8]F[Bta]Q-NH2
modifications: staple 1-4, 4-11
notes: Stapled peptide composition; also called Ac-PL3-Asp-Lys-B5-Asp-Glu-Ala-Ala-Phe-Hse-S8-Phe-BztA-Gln-NH2
B2: I-263 (peptide)
peptide: XDAXDDAAFVXFWQ
modifications: not fully specified; N-terminal Ac; PL3 at 1; B5 at 4; S8 at 11; 34FF at 12; C-terminal NH2; staples PL3(1)-B5(4) and B5(4)-S8(11) by olefin metathesis
notes: Stapled (stitched) peptide; also called Ac-PL3-Asp-Ala-B5-Asp-Asp-Ala-Ala-Phe-Val-S8-34FF-Trp-Gln-NH2
B3: I-262 (peptide)
peptide: XDAXDDAAFVXFWQ
modifications: not fully specified; N-terminal Ac; PL3 at 1; B5 at 4; S8 at 11; 34FF at 12; C-terminal NH2; staples PL3(1)-B5(4) and B5(4)-S8(11) by olefin metathesis
notes: as for B2
B4: I-271 (peptide)
peptide: Ac-[αAllylPro]DA[B5(17)]D[3Pal]AAFV[S8]FWQ-NH2
modifications: staple 1-4, 4-11
notes: Stapled (stitched) peptide; also called Ac-PL3-Asp-Ala-B5-Asp-3PyrA-Ala-Ala-Phe-Val-S8-Phe-Trp-Gln-NH2
B5: I-264 (peptide)
peptide: Ac-[αAllylPro]DA[B5(4)]DDAA[Phe(3-F)]V[S8]FWQ-NH2
modifications: staple 1-4, 4-11; not fully specified; printed as Ac-PL3-Asp-Ala-B5-Asp-Asp-Ala-Ala-3FF-Val-S8-Phe-Trp-Gln-NH2
notes: Stapled (stitched) peptide; also called Ac-PL3-Asp-Ala-B5-Asp-Asp-Ala-Ala-3FF-Val-S8-Phe-Trp-Gln-NH2
B6: I-275 (peptide)
peptide: XDAXDDAAFVXXWQ
modifications: not fully specified; N-terminal Ac; PL3 at 1; B5 at 4; S8 at 11; 1NapA at 12; C-terminal NH2; staples PL3(1)-B5(4) and B5(4)-S8(11) by olefin metathesis
notes: Stapled (stitched) peptide; also called Ac-PL3-Asp-Ala-B5-Asp-Asp-Ala-Ala-Phe-Val-S8-1NapA-Trp-Gln-NH2
B7: I-270 (peptide)
peptide: Ac-[αAllylPro]DA[B5(17)]D[2Pal]AAFV[S8]FWQ-NH2
modifications: staple 1-4, 4-11
notes: Stapled (stitched) peptide; also called Ac-PL3-Asp-Ala-B5-Asp-2PyrA-Ala-Ala-Phe-Val-S8-Phe-Trp-Gln-NH2
B8: I-260 (peptide)
peptide: Ac-[αAllylPro]DA[B5(4)]DDAAFV[S8][Phe(3-F)]WQ-NH2
modifications: staple 1-4, 4-11
notes: Stapled (stitched) peptide; also called Ac-PL3-Asp-Ala-B5-Asp-Asp-Ala-Ala-Phe-Val-S8-3FF-Trp-Gln-NH2
B9: I-285 (peptide)
peptide: XDAXDDAAFVXHWQ
modifications: not fully specified; N-terminal Ac; PL3 at 1; B5 at 4; S8 at 11; C-terminal NH2; staples PL3(1)-B5(4) and B5(4)-S8(11) by olefin metathesis
notes: Stapled (stitched) peptide; also called Ac-PL3-Asp-Ala-B5-Asp-Asp-Ala-Ala-Phe-Val-S8-His-Trp-Gln-NH2
B10: I-286 (peptide)
peptide: XDAXDDAAFAXFWA
modifications: not fully specified; N-terminal Ac; PL3 at 1; B5 at 4; S8 at 11; C-terminal NH2; staples PL3(1)-B5(4) and B5(4)-S8(11) by olefin metathesis
notes: Stapled (stitched) peptide; also called Ac-PL3-Asp-Ala-B5-Asp-Asp-Ala-Ala-Phe-Ala-S8-Phe-Trp-Ala-NH2
B11: I-266 (peptide)
peptide: Ac-[αAllylPro]DA[B5(4)]DDAA[Phe(4-F)]V[S8]FWQ-NH2
modifications: staple 1-4, 4-11
notes: Stapled (stitched) peptide; also called Ac-PL3-Asp-Ala-B5-Asp-Asp-Ala-Ala-4FF-Val-S8-Phe-Trp-Gln-NH2
B12: I-261 (peptide)
peptide: Ac-[αAllylPro]DA[B5(4)]DDAAFV[S8][Phe(4-F)]WQ-NH2
modifications: staple 1-4, 4-11
notes: Stapled (stitched) peptide; also called Ac-PL3-Asp-Ala-B5-Asp-Asp-Ala-Ala-Phe-Val-S8-4FF-Trp-Gln-NH2
B13: I-276 (peptide)
peptide: XDAXDDAAFVXXWQ
modifications: not fully specified; N-terminal Ac; PL3 at 1; B5 at 4; S8 at 11; 1NapA at 12; C-terminal NH2; staples PL3(1)-B5(4) and B5(4)-S8(11) by olefin metathesis
notes: as for B6
B14: I-267 (peptide)
peptide: Ac-[αAllylPro]DA[B5(17)]DDAA[Phe(3,4-F2)]V[S8]FWQ-NH2
modifications: staple 1-4, 4-11
notes: Stapled (stitched) peptide; also called Ac-PL3-Asp-Ala-B5-Asp-Asp-Ala-Ala-34FF-Val-S8-Phe-Trp-Gln-NH2
B15: I-289 (peptide)
peptide: XDAXDDAAFVXFW
modifications: not fully specified; N-terminal Ac; PL3 at 1; B5 at 4; S8 at 11; C-terminal NH2; staples PL3(1)-B5(4) and B5(4)-S8(11) by olefin metathesis
notes: Stapled (stitched) peptide; also called Ac-PL3-Asp-Ala-B5-Asp-Asp-Ala-Ala-Phe-Val-S8-Phe-Trp-NH2
B16: I-265 (peptide)
peptide: Ac-[αAllylPro]DA[B5(4)]DDAA[Phe(3-F)]V[S8]FWQ-NH2
modifications: staple 1-4, 4-11; not fully specified; printed as Ac-PL3-Asp-Ala-B5-Asp-Asp-Ala-Ala-3FF-Val-S8-Phe-Trp-Gln-NH2
notes: as for B5

Data on 16 molecules can be found in US20240116985A1 (published 2024).

Starred links: 1 amine or outer side, 2 acyl side, 3 side chain; linkers in the order of their positions; H or OH if unused. Positions of bridges follow the written chain, without caps; N, C: chain ends. Non-standard residues stand in square brackets, D forms with d. Primed or numbered codes have the meaning given here. B5(17) = 2,2-bis(4-pentenyl)glycine = 2-amino-2-(pent-4-en-1-yl)hept-6-enoic acid, stitching residue, C=CCCCC(CCCC=C)(N[*:1])C(=O)[*:2]; B5(23) = 2-amino-2-(pent-4-en-1-yl)hept-6-enoic acid (2,2-bis(4-pentenyl)glycine), stitching residue, C=CCCCC(CCCC=C)(N[*:1])C(=O)[*:2]; B5(4) = 2,2-bis(4-pentenyl)glycine = 2-amino-2-(pent-4-en-1-yl)hept-6-enoic acid (stitching residue), C=CCCCC(CCCC=C)(N[*:1])C(=O)[*:2]; Phe(3,4-F2) = N[C@@H](Cc1ccc(F)c(F)c1)C(=O)O; Phe(3-F) = N[C@@H](Cc1cccc(F)c1)C(=O)O; Phe(4-F) = N[C@@H](Cc1ccc(F)cc1)C(=O)O; Bta = N[C@@H](Cc1csc2ccccc12)C(=O)O; αAllylPro = C=CC[C@@]1(C(=O)O)CCCN1; 2Pal = N[C@@H](Cc1ccccn1)C(=O)O; 3Pal = N[C@@H](Cc1cccnc1)C(=O)O; S8 = C=CCCCCCC[C@](C)(N)C(=O)O; hSer = N[C@@H](CCO)C(=O)O

The target of the first assay is T1, full-length beta-Catenin (Uniprot ID P35222) (Homo sapiens (Human), UniProt P35222 2-781).
T1 construct: full-length; also called bCat; B-Catenin
T1 sequence: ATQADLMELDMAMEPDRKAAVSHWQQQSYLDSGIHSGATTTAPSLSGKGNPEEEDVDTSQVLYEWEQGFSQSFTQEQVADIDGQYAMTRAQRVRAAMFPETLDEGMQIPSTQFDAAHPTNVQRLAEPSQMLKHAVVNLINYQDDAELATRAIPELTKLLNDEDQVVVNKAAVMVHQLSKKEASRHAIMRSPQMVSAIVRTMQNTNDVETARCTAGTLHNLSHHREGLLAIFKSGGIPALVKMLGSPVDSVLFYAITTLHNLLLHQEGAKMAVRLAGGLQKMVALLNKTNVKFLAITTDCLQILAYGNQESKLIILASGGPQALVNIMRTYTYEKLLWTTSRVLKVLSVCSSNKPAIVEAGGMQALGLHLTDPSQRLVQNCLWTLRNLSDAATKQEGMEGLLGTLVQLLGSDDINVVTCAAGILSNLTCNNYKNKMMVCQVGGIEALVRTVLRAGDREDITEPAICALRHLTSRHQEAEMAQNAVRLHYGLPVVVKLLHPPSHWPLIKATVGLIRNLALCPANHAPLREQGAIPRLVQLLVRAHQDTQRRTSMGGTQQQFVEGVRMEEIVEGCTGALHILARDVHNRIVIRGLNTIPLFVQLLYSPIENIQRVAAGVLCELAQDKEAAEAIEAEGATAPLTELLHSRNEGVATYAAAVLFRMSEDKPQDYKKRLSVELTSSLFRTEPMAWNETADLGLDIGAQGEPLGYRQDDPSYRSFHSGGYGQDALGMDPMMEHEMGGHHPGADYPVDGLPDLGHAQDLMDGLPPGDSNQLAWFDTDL
Kind of assay: fluorescence polarization competition; displaces 5FAM-TCF4(10-53) from full-length beta-catenin. On the procedure: (§1) The plate was incubated protected from light for 60 minutes at 20° C. prior to read. Reads were performed on a CLARIOstar plate reader (BMG Labtech) in duplicate, and data were fitted to a 1:1 binding model with hill slope using an in-house script. All provided concentrations are final concentrations.
On the technique in general: Fluorescence polarisation rises when a labelled molecule tumbles more slowly, as on binding a larger partner.
As a reminder, the IC50 is the midpoint of a concentration-inhibition curve. As to B1, the 50% inhibitory concentration (IC50) was determined as 63 nM.

A further assay deals with T2, full-length beta-Catenin (Uniprot ID P35222) (Homo sapiens (Human), UniProt P35222 1-781).
T2 construct: The assay protocols call it full-length; also called B-Catenin; bCat
T2 sequence: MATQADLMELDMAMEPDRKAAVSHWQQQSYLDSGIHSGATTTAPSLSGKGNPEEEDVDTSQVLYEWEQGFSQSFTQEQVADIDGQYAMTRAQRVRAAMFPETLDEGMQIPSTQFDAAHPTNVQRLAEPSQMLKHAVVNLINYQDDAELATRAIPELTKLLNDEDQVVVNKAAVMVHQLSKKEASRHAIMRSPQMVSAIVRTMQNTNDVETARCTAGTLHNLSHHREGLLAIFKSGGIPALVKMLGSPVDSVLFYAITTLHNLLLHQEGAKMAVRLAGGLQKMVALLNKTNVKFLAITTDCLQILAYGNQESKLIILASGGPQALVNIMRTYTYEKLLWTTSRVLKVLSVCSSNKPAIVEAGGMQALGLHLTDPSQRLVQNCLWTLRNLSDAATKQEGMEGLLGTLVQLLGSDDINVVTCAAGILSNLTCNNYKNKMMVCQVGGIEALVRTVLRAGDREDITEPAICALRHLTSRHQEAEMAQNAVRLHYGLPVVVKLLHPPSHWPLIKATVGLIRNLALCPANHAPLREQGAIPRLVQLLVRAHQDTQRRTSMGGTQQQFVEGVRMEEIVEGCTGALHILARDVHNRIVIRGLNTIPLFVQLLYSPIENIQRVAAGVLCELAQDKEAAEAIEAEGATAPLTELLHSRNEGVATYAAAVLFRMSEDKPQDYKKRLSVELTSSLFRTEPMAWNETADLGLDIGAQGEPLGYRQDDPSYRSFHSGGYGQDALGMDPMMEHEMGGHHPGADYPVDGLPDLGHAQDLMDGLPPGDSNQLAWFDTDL
Kind of assay: fluorescence polarization competition; full-length beta-catenin with 5FAM-labelled TCF4 10-53 peptide as competitor. The procedure: as §1
In general, EC50 refers to the midpoint of the concentration-response curve. Low readings indicate a more potent agent, high ones a less potent agent. B2 came in with an EC50 of 5000 nM.

For B3, the EC50 turned out to be 5000 nM.

B4: the half-maximal effective concentration (EC50) was 5000 nM.

As to B5, a half-maximal response (EC50) required 5000 nM.

With B6, a half-maximal response (EC50) required 5000 nM.

Turning to B7, the response was half-maximal at 5000 nM (EC50).

In turn, B8 registered an EC50 of 5000 nM.

As to B9, a half-maximal response (EC50) required 5000 nM.

B10 yielded an EC50 of 4480 nM.

B11 gave an EC50 of 5000 nM.

In turn, B12 registered an EC50 of 5000 nM.

Regarding B13, the EC50 was 3430 nM.

B14 had an EC50 of 5000 nM.

As for B15, the 50% effective concentration (EC50) came out at 5000 nM.

Take B16: the EC50 worked out at 3760 nM.

Another assay concerns the target T2, full-length beta-Catenin (Uniprot ID …). Kind of assay: AlphaScreen competition; full-length beta-catenin with biotin-labelled TCF4 10-53 peptide as competitor. On the procedure:
Equal volume of the titrated peptide was added to the plate and incubated for 15 minutes at 20° C. Then 4 uL of donor and 4 uL acceptor beads at 10 ug/mL were added to the plate, for a 16 uL reaction pool and protected from light for 60 minutes at 20° C. prior to read. Reads were performed on a CLARIOstar plate reader (BMG Labtech) in duplicate, and data were fitted to a 1:1 binding model with hill slope using an in-house script. All provided concentrations are final concentrations.
A general note: Bead proximity is the source of the signal in Alpha formats.
Molecule B2 came in with an EC50 of 864 nM.

With B3, the EC50 was determined as 967 nM.

The molecule B4 gave a concentration giving a half-maximal response (EC50) of 788 nM.

B5 registered a 50% effective concentration (EC50) of 364 nM.

On to B6, for which the concentration giving a half-maximal response (EC50) was 859 nM.

In turn, B7 showed an EC50 of 835 nM.

B8 returned an EC50 of 683 nM.

For the molecule B9, the 50% effective concentration (EC50) came to 246 nM.

For B10, the EC50 worked out at 450 nM.

As for B11, the 50% effective concentration (EC50) worked out at 318 nM.

As to B12, it took 347 nM to reach a half-maximal effect (EC50).

B13 yielded an EC50 of 329 nM.

As for B14, the 50% effective concentration (EC50) is 620 nM.

The molecule B15 yielded a concentration for a half-maximal effect (EC50) of 626 nM.

As for B16, the EC50 was 194 nM.

The target in a further assay is T3, B-cat-Halo (beta-catenin HaloTag NanoBRET construct expressed in HEK293 cells) (UniProt P35222 1-781).
T3 sequence (looked up): T2 sequence
Kind of assay: cell-based or functional assay.
Regarding B1, the “NanoBRET Abs IC50” value is > 20000 nM.
